Results as given in patent publication US20080313749A1.

Experiments:
[1] = target: … (SEQ ID NO:102), scaffold-bound CCR5-derived peptide 443; test: peptide microarray ELISA, 2D7 at 1 µg/ml
[2] = target: … (SEQ ID NO:105), scaffold-bound CCR5-derived peptide 450; test: peptide microarray ELISA, 2D7 at 1 µg/ml
[3] = target: … (SEQ ID NO:107), scaffold-bound CCR5-derived peptide 1159; test: peptide microarray ELISA, 2D7 at 1 µg/ml
[4] = target: … (SEQ ID NO:106), scaffold-bound CCR5-derived peptide 702; test: peptide microarray ELISA, 2D7 at 1 µg/ml
[5] = target: … (SEQ ID NO:104), scaffold-bound CCR5-derived peptide 1160; test: peptide microarray ELISA, 2D7 at 1 µg/ml
[6] = target: … (SEQ ID NO:108), scaffold-bound CCR5-derived peptide 719; test: peptide microarray ELISA, 2D7 at 1 µg/ml
Chain of … (SEQ ID NO:108), scaffold-bound CCR5-derived peptide 719 (peptide, as listed by the source): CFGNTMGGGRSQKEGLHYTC

[7] = target: … (SEQ ID NO:103), scaffold-bound CCR5-derived peptide 449; test: peptide microarray ELISA, 2D7 at 1 µg/ml
[8] = target: … (SEQ ID NO:101), scaffold-bound CCR5-derived peptide 447; test: peptide microarray ELISA, 2D7 at 1 µg/ml
[9] = target: … (SEQ ID NO:109), scaffold-bound CCR5-derived peptide 1158; test: peptide microarray ELISA, 2D7 at 1 µg/ml
[10] = target: … (SEQ ID NO:102), scaffold-bound CCR5-derived peptide 443; test: peptide microarray ELISA, 2D7 at 10 µg/ml
[11] = target: … (SEQ ID NO:105), scaffold-bound CCR5-derived peptide 450; test: peptide microarray ELISA, 2D7 at 10 µg/ml
[12] = target: … (SEQ ID NO:107), scaffold-bound CCR5-derived peptide 1159; test: peptide microarray ELISA, 2D7 at 10 µg/ml
[13] = target: … (SEQ ID NO:106), scaffold-bound CCR5-derived peptide 702; test: peptide microarray ELISA, 2D7 at 10 µg/ml
[14] = target: … (SEQ ID NO:104), scaffold-bound CCR5-derived peptide 1160; test: peptide microarray ELISA, 2D7 at 10 µg/ml
[15] = target: … (SEQ ID NO:108), scaffold-bound CCR5-derived peptide 719; test: peptide microarray ELISA, 2D7 at 10 µg/ml
[16] = target: … (SEQ ID NO:103), scaffold-bound CCR5-derived peptide 449; test: peptide microarray ELISA, 2D7 at 10 µg/ml
[17] = target: … (SEQ ID NO:101), scaffold-bound CCR5-derived peptide 447; test: peptide microarray ELISA, 2D7 at 10 µg/ml
[18] = target: … (SEQ ID NO:109), scaffold-bound CCR5-derived peptide 1158; test: peptide microarray ELISA, 2D7 at 10 µg/ml
[19] = target: … (SEQ ID NO:102), scaffold-bound CCR5-derived peptide 443; test: peptide microarray ELISA, 2D7 at 0.1 µg/ml
[20] = target: … (SEQ ID NO:105), scaffold-bound CCR5-derived peptide 450; test: peptide microarray ELISA, 2D7 at 0.1 µg/ml
[21] = target: … (SEQ ID NO:107), scaffold-bound CCR5-derived peptide 1159; test: peptide microarray ELISA, 2D7 at 0.1 µg/ml
[22] = target: … (SEQ ID NO:106), scaffold-bound CCR5-derived peptide 702; test: peptide microarray ELISA, 2D7 at 0.1 µg/ml
[23] = target: … (SEQ ID NO:104), scaffold-bound CCR5-derived peptide 1160; test: peptide microarray ELISA, 2D7 at 0.1 µg/ml
[24] = target: … (SEQ ID NO:108), scaffold-bound CCR5-derived peptide 719; test: peptide microarray ELISA, 2D7 at 0.1 µg/ml
[25] = target: … (SEQ ID NO:103), scaffold-bound CCR5-derived peptide 449; test: peptide microarray ELISA, 2D7 at 0.1 µg/ml
[26] = target: … (SEQ ID NO:101), scaffold-bound CCR5-derived peptide 447; test: peptide microarray ELISA, 2D7 at 0.1 µg/ml
[27] = target: … (SEQ ID NO:109), scaffold-bound CCR5-derived peptide 1158; test: peptide microarray ELISA, 2D7 at 0.1 µg/ml

Substance: anti-CCR5 antibody 2D7
- microarray ELISA signal (absorbance 405 nm, CCD camera) [1]: 2640
- microarray ELISA signal (absorbance 405 nm, CCD camera) [2]: 2360
- microarray ELISA signal (absorbance 405 nm, CCD camera) [3]: 1150
- microarray ELISA signal (absorbance 405 nm, CCD camera) [4]: 1580
- microarray ELISA signal (absorbance 405 nm, CCD camera) [5]: 2470
- microarray ELISA signal (absorbance 405 nm, CCD camera) [6]: 678
- microarray ELISA signal (absorbance 405 nm, CCD camera) [7]: 2610
- microarray ELISA signal (absorbance 405 nm, CCD camera) [8]: 2710
- microarray ELISA signal (absorbance 405 nm, CCD camera) [9]: 416
- microarray ELISA signal (absorbance 405 nm, CCD camera) [10]: 3090
- microarray ELISA signal (absorbance 405 nm, CCD camera) [11]: 2850
- microarray ELISA signal (absorbance 405 nm, CCD camera) [12]: 2640
- microarray ELISA signal (absorbance 405 nm, CCD camera) [13]: 2790
- microarray ELISA signal (absorbance 405 nm, CCD camera) [14]: 2760
- microarray ELISA signal (absorbance 405 nm, CCD camera) [15]: 2820
- microarray ELISA signal (absorbance 405 nm, CCD camera) [16]: 2890
- microarray ELISA signal (absorbance 405 nm, CCD camera) [17]: 2940
- microarray ELISA signal (absorbance 405 nm, CCD camera) [18]: 2380
- microarray ELISA signal (absorbance 405 nm, CCD camera) [19]: 148
- microarray ELISA signal (absorbance 405 nm, CCD camera) [20]: 107
- microarray ELISA signal (absorbance 405 nm, CCD camera) [21]: 213
- microarray ELISA signal (absorbance 405 nm, CCD camera) [22]: 68
- microarray ELISA signal (absorbance 405 nm, CCD camera) [23]: 315
- microarray ELISA signal (absorbance 405 nm, CCD camera) [24]: 113
- microarray ELISA signal (absorbance 405 nm, CCD camera) [25]: 99
- microarray ELISA signal (absorbance 405 nm, CCD camera) [26]: 261
- microarray ELISA signal (absorbance 405 nm, CCD camera) [27]: 132
